Tests used:
[1] = target: T1, cynomolgus monkey IL-18BP (construct not stated) (cynomolgus monkey); experiment: KinExA, solution equilibrium
T1 construct: also called cyno IL18BP; cyno IL-18BP

[2] = target: T2, human IL-18BP (recombinant, construct not stated) (human, UniProt O95998 31-194); experiment: KinExA, solution equilibrium
T2 construct: also called hIL-18BP; human monomeric IL18BP
T2 sequence: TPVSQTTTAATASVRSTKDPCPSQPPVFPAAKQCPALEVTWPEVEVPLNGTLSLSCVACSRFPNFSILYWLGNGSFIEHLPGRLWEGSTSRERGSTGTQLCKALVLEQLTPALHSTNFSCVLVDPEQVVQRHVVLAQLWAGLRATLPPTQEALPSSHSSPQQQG

[3] = target: T1, cynomolgus monkey IL-18BP (construct …); experiment: KinExA (figure legend; the text prints 208 fM)
mouse IL18-BP-Fc = target: T3, mouse IL18-BP-Fc (mouse, UniProt Q9Z0M9 29-193, limits assumed); experiment: Biacore T100; mouse IL18BP-Fc captured on anti-human Fc, Fab 300-2.21 nM in solution
T3 construct: R&D cat; 122-BP is named for the AbD35328 SPR; also called mouse IL18-BP-Fc (cat. 122-BP, R&D); mouse IL18-BP Fc fusion protein
T3 sequence (looked up): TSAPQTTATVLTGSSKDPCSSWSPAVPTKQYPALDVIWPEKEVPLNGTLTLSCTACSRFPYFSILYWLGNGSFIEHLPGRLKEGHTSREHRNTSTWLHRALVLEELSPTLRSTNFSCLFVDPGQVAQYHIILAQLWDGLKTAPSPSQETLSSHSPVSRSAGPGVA

[4] = target: T4, mouse IL-18BP (construct not stated) (mouse, UniProt Q9Z0M9 29-193, limits assumed); experiment: KinExA, solution equilibrium
T4 construct: also called mIL18-BP
T4 sequence (looked up): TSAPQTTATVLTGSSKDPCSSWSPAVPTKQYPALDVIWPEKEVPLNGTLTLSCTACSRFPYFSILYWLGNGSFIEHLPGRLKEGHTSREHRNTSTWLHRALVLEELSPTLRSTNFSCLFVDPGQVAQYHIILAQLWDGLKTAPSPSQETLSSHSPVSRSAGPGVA

B1: ADI-71739 (antibody, V domains shown)
VH: QLQLQESGPGLVKPSETLSLTCTVSGGSISSPDYPWGWIRQPPGKGLEWIGSIYYQGATYYNPSLKSRVTISVDTSKNQFSLKLSSVTAADTAVYYCARGPYRQLFDYWGQGTLVTVSS
VL: DIQMTQSPSSVSASVGDRVTITCRASQGISSWLAWYQQKPGKAPKLLIYAASSLQSGVPSRFSGSGSGTDFTLTISSLQPEDFATYYCQQGSVFPYTFGGGTKVEIK
For B1, the Kd [1] was ~0.208 pM, the Kd [2] was ~0.291 pM and the Kd [3] was 0.209 pM.

B2: ADI-71739 Fab fragment (Fab, V domains shown)
VH: QLQLQESGPGLVKPSETLSLTCTVSGGSISSPDYPWGWIRQPPGKGLEWIGSIYYQGATYYNPSLKSRVTISVDTSKNQFSLKLSSVTAADTAVYYCARGPYRQLFDYWGQGTLVTVSS
VL: DIQMTQSPSSVSASVGDRVTITCRASQGISSWLAWYQQKPGKAPKLLIYAASSLQSGVPSRFSGSGSGTDFTLTISSLQPEDFATYYCQQGSVFPYTFGGGTKVEIK
notes: Used for the Biacore measurement on mouse IL18BP-Fc; also called anti-IL18BP Fab
B2 showed a Kd (mouse IL18-BP-Fc) of ~4000 pM.

B3: mouse IL-18 (ligand, UniProt P70380 36-192, looked up)
chain: NFGRLHCTTAVIRNINDQVLFVDKRQPVFEDMTDIDQSASEPQTRLIIYMYKDSEVRGLAVTLSVKDSKMSTLSCKNKIISFEEMDPPENIDDIQSDLIFFQKRVPGHNKMEFESSLYEGHFLACQKEDDAFKLILKKKDENGDKSVMFTLTNLHQS
notes: also called mIL-18; mouse IL-18 biotinylated (Sino Biological)
With B3 the Kd [4] was ~3.7 pM.

From patent US20240425607A1 (COMPUGEN, published 2024)
